Key:
[1] = biological target: PC-1^deltaNT/PC-2_(F604P) heteromer (UniProt P98161)
[2] = biological target: PC-2 F604P (human polycystin-2 with the gain of function mutation F604P) (human) (UniProt Q13563)
[3] = biological target: native heteromeric PC-1/PC-2 polycystin complex of mIMCD-3 primary cilia (mouse (endogenous in mIMCD-3)) (UniProt O08852)
[4] = biological target: native heteromeric PC-1/PC-2 polycystin complex of mIMCD-3 primary cilia (mouse (endogenous in mIMCD-3)) (UniProt O08852); remark: listed apart in the source

Chain of PC-2 F604P (human polycystin-2 with the gain of function mutation F604P) (human) (Q13563 whole entry F604P): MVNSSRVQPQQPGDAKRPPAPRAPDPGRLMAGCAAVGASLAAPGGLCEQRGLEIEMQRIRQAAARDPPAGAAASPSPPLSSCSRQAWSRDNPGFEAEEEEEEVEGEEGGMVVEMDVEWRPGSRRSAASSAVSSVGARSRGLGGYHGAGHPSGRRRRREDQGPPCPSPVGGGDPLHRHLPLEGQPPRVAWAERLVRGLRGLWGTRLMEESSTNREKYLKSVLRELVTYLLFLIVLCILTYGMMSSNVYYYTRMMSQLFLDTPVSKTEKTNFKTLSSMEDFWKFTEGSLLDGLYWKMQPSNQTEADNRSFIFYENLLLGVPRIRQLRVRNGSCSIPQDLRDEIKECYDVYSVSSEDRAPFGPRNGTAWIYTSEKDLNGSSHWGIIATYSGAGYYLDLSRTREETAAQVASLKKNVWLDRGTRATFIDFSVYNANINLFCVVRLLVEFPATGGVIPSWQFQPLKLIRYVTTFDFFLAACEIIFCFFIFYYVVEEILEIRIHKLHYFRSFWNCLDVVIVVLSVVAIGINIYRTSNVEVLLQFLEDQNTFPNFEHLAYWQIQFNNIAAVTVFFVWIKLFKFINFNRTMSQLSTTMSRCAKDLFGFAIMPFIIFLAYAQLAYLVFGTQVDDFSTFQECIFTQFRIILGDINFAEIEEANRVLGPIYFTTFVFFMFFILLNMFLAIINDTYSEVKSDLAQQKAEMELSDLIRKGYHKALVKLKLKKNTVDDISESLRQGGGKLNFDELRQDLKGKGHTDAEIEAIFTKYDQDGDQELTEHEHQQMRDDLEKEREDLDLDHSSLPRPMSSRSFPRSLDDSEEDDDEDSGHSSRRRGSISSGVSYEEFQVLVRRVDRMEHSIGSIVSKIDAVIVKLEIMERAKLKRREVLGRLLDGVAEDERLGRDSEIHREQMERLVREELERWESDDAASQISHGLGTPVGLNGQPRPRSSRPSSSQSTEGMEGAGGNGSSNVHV
Chain of PC-1 N-terminal fragment NTF^263-535 (P98161 263-535): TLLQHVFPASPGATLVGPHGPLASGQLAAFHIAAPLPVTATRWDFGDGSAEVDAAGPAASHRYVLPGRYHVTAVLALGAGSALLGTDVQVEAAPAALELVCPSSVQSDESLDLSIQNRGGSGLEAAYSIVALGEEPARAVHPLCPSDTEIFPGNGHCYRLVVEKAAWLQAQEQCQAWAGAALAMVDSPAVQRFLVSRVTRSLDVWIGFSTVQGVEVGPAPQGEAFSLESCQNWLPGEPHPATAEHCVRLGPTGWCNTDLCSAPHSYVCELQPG
Chain of PC-1^deltaNT/PC-2_(F604P) heteromer (P98161 other isoform, or with tags, fused parts or gaps F604P | F604P, chain 1 of 2): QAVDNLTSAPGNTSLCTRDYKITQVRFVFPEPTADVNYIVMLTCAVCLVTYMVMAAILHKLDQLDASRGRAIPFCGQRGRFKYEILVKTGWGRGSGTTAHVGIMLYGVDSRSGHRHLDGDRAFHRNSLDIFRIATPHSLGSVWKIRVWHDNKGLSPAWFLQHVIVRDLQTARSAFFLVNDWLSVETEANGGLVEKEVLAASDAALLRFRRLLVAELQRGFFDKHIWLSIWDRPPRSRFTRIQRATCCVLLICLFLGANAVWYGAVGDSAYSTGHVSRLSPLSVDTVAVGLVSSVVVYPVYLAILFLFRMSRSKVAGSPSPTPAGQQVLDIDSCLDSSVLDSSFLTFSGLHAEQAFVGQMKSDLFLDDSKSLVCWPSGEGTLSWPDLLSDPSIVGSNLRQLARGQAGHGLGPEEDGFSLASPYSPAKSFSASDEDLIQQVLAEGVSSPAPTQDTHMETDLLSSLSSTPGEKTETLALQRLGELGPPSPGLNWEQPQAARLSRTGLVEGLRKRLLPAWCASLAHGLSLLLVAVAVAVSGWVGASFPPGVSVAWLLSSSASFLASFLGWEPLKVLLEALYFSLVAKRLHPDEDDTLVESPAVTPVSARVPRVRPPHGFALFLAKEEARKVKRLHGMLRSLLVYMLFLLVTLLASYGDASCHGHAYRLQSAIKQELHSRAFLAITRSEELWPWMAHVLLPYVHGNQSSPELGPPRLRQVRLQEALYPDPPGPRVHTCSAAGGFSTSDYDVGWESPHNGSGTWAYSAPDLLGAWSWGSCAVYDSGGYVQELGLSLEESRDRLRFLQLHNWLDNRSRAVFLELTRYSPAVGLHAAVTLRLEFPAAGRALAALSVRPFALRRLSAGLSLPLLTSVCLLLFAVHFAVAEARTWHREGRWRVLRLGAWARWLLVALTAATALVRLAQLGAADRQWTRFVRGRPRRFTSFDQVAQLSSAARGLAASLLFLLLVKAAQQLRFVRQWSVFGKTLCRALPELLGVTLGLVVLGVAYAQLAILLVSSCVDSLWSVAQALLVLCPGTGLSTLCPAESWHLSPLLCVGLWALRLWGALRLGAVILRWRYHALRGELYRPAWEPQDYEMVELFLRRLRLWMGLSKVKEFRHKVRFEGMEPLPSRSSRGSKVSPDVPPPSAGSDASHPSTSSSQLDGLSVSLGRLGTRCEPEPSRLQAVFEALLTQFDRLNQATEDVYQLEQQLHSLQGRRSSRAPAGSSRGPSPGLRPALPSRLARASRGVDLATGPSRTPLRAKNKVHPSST
Chain of PC-1^deltaNT/PC-2_(F604P) heteromer (Q13563 whole entry F604P, chain 2 of 2, further chain): as the sequence (Q13563 whole entry F604P) above
Chain of PC-1 N-terminal fragment NTF^24-852 (P98161 24-852): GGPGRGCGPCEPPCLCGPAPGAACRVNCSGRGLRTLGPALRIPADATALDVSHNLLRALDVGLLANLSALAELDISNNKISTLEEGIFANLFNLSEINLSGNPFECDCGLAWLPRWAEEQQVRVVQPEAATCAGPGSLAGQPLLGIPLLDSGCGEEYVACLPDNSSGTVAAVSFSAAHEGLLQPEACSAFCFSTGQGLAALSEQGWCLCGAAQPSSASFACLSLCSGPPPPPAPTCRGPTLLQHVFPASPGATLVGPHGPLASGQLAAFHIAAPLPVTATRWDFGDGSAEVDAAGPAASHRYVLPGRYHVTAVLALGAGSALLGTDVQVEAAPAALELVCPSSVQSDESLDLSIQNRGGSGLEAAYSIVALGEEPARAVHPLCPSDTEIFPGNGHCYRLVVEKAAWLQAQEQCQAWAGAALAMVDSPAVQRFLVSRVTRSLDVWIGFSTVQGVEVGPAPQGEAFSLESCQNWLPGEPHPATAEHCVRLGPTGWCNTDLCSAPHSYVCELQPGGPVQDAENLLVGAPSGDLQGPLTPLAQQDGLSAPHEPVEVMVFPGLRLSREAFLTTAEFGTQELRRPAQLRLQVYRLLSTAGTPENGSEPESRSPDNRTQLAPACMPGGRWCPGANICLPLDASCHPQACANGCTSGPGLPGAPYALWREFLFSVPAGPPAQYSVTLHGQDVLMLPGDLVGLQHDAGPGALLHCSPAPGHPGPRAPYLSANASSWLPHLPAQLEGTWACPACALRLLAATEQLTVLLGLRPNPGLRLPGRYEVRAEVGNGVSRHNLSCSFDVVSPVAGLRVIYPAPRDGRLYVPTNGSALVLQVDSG

In the case of “PC-1 N-terminal fragment NTF^24-852 (from UniProt P98161 24-852) (domain or fragment)”, the outward whole-cell currents of HEK293 cells expressing PC-1deltaNT/PC-2 F604P with the fragment in the bath solution [1] is reported as 65.5 pA/pF.

Work on “sPC-1 (human polycystin-1 with Ig kappa-chain secretion sequence and HA tag in place of its own signal peptide) (from UniProt P98161 24-4303) (receptor)” yielded a relative open probability at -100 mV, whole-cell patch clamp, HEK293 cells [2] of 0.1 and a whole-cell patch clamp current density at +100 mV, HEK293 cells co-expressing sPC-1 and PC-2 F604P (PC-2 F604P alone gave negligible currents) [2] of 123 pA/pF.

Work on “sPC-1_(pore) (sPC-1 with R4100G, R4107G and H4111G) (from UniProt P98161 24-4303) (receptor)” yielded a relative open probability at -100 mV, whole-cell patch clamp, HEK293 cells [2] of 0.3 and a whole-cell patch clamp current density at +180 mV, HEK293 cells co-expressing sPC-1pore and PC-2 F604P [2] of 71.1 pA/pF.

For “PC-1 N-terminal fragment NTF^263-535 (from UniProt P98161 263-535) (domain or fragment)”, the spike-like elevations of ciliary Ca2+ (Arl13b-mScarlet-GCaMP6s, TIRF microscopy) in mIMCD-3 cells after the fragment; none in untreated cells, with boiled fragment or in PC-2 knockout cells [3] was > 0.35 ΔF/F, the probability of single channel openings at negative membrane potentials, excised inside-out patches of mIMCD-3 primary cilia, 0.7 ug/mL (~50 nM) fragment in the pipette [4] was 5 fold and the outward whole-cell currents of HEK293 cells expressing PC-1deltaNT/PC-2 F604P with the fragment in the bath solution (boiled fragment inactive) [1] was 61.4 pA/pF.

From paper PMC7728438
